Patent publication US20220235142A1 (SHANGHAI GENBASE BIOTECHNOLOGY, published 2022)

Experiments:
[1] = molecular target: T1, CEACAM6 protein overexpressed on CHO cells (UniProt P40199 35-320, limits assumed); assay: flow cytometry on CHO-CEACAM6 cells
T1 construct: whole, on cells; also called CHO-CEACAM6
T1 sequence (looked up): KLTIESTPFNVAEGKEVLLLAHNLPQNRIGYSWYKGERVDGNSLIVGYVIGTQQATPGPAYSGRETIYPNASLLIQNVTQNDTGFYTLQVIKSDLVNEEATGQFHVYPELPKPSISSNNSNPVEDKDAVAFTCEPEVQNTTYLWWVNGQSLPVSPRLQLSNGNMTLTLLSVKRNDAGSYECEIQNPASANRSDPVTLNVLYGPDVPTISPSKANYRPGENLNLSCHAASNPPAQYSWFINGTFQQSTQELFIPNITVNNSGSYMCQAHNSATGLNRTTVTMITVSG
Method: (§1) Flow cytometry (FACS) was used to detect the binding of antibody to LOVO tumor cells that naturally expressed human CEACAM5 protein or cells that overexpressed different CEACAM proteins. In short, cells were first collected, washed with PBS, counted, and diluted to obtain 2*10⁶/ml cell suspension; 10 μl of an antibody working solution was added to 100 μl of the cell suspension, and incubated at 4° C. for 30 min in the dark; after washing twice with PBS, a corresponding fluorescent-labeled secondary antibody Goat-anti-Human IgG (H+L) (Invitrogen) was added, incubated at 4° C. for 30 min in the dark, after washing twice with PBS, it was suspended in 400 μl of FACS buffer, and the binding situations of the antibody to the cells were detected by FACS.
(§2) The binding situations of the supernatants of the chimeric antibody UM05-6L and the control antibody UM05-8 (anti-CEACAM5 antibody, prepared by the hybridoma method in our laboratory) to different cells at a concentration of 3 μg/mL were detected, in which SW620-CEACAM1 was a cell overexpressing CEACAM1 protein, SW620-CEACAM3 was a cell overexpressing CEACAM3 protein, CHO-CEACAM6 was a cell overexpressing CEACAM6 protein, CHO-CEACAM7 was a cell overexpressing CEACAM7 protein, and CHO-CEACAM8 was a cell overexpressing CEACAM8 protein. […]

[2] = molecular target: T2, CEACAM7 protein overexpressed on CHO cells (UniProt Q14002 36-242, limits assumed); assay: flow cytometry on CHO-CEACAM7 cells
T2 construct: whole, on cells; also called CHO-CEACAM7
T2 sequence (looked up): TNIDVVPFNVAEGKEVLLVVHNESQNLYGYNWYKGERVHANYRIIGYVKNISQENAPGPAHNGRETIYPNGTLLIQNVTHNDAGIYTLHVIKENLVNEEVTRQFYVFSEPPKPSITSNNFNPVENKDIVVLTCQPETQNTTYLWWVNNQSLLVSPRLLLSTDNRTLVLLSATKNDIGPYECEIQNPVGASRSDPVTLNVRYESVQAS
Method: as §1, §2

[3] = molecular target: T3, CEACAM1 protein overexpressed on SW620 cells (UniProt P13688 35-526, limits assumed); assay: flow cytometry on SW620-CEACAM1 cells
T3 construct: whole, on cells; also called SW620-CEACAM1
T3 sequence (looked up): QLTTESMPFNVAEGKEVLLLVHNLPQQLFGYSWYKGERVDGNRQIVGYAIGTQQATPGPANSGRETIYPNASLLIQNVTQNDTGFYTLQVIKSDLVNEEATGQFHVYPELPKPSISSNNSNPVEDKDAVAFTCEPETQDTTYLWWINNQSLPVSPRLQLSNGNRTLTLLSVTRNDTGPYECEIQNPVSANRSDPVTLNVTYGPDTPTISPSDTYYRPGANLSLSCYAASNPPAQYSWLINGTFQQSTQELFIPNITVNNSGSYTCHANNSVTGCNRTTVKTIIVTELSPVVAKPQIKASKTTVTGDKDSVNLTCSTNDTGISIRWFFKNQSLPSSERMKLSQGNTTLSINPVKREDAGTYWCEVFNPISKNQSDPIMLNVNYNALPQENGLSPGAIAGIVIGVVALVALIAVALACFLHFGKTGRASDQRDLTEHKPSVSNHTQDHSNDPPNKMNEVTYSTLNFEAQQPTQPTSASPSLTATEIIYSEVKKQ
Method: as §1, §2

[4] = molecular target: T4, CEACAM3 protein overexpressed on SW620 cells (UniProt P40198 35-252, limits assumed); assay: flow cytometry on SW620-CEACAM3 cells
T4 construct: whole, on cells; also called SW620-CEACAM3
T4 sequence (looked up): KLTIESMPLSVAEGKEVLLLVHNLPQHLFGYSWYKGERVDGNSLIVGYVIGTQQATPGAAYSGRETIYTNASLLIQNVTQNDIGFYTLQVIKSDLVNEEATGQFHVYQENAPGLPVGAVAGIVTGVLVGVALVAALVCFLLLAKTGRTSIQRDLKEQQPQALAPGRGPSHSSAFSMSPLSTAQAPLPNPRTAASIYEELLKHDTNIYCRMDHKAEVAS
Method: as §1, §2

[5] = molecular target: T5, human CEACAM5 protein naturally expressed on LOVO tumor cells (human, UniProt P06731 35-685); assay: flow cytometry on LOVO tumor cells that naturally express human CEACAM5
T5 construct: whole, on cells; Cell-surface CEACAM5 on tumor cell lines; also called LOVO cells; CEACEM5
T5 sequence (looked up): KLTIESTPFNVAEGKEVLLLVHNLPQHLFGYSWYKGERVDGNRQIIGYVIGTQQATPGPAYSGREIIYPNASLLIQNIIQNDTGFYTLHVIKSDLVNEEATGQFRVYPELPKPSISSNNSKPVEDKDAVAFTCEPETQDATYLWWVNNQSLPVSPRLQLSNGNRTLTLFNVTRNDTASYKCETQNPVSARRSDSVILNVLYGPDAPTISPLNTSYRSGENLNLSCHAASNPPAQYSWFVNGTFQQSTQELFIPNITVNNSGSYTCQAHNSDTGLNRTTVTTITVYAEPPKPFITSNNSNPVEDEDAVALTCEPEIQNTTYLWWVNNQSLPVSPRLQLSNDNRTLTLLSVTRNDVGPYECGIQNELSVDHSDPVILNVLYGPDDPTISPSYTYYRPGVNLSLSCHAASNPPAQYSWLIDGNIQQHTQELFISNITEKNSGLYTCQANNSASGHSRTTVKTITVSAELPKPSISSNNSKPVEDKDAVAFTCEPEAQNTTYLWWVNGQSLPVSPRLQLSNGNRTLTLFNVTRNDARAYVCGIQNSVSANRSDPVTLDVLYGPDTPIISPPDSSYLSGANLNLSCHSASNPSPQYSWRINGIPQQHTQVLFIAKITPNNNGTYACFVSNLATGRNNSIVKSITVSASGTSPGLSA
Method: as §1
Furthermore, we used FACS to detect the EC50 of the chimeric antibody UM05-6L binding to LOVO tumor cells that naturally expressed human CEACAM5. […] Based on the above results, the chimeric antibody UM05-6L had excellent binding affinity, specificity and selectivity to CEACAM5.

human CEACAM5 protein = molecular target: T6, human CEACAM5 protein (human, UniProt P06731 35-685, limits assumed); assay: ELISA, plate coated with human CEACAM5 protein at 1 µg/mL, goat anti-human IgG HRP
T6 construct: Protein used as ELISA coating; the immunogen was CEACAM5 protein (L2C01001) purified from tumor patients; also called CD66e; carcinoembryonic antigen cell adhesion molecule 5
T6 sequence (looked up): T5 sequence (looked up)
Method: On the next day, it was first washed with 300 μL of PBST (Tween20: 0.5‰) for 3 times, then blocked with 100 μL/well of 5% BSA/PBS for 1 hour, and shaken at room temperature. Washing was performed 3 times with 300 μL of PBST. A series of dilution solutions of antibody samples were prepared with PBS, and added at 100 μL/well to the 96-well plate and shaken at room temperature for 1 hour. Washing was performed 3 times with 300 μL of PBST. A secondary antibody goat anti-human IgG HRP solution was prepared, added at 100 μL/well to the 96-well plate, and shaken at room temperature for 30 minutes. Washing was performed 4 times with 300 μL of PBST. 100 μL/well TMB was added to perform color development for 20 min. 100 μL/well of 0.6N H₂SO₄ was added to stop the color development, and OD450 nm was detected.

B1: human-mouse chimeric antibody UM05-6L (antibody, human IgG1, kappa, V domains shown)
VH: EVQLQQSGPELVKPGASVKISCKASGYTFTDYYLNWVKQSPGKSLEWIGNINPINDFTTYNQKFKAKATLTVDKSSTTSYMALRSLTSEDSAVYYCTRYDGYFAYWGQGTTLTVSS
VL: DIQMNQSPSSLSASLGDTITITCHASQNINVWLSWYQQKPGNIPKLLIYKASNLHTGVPSRFSGSGSGTGFTLTISSLQPEDIATYYCQQGQSYPWTFGGGTKLEIKR
notes: expressed in HEK293 cells, purified on Protein A
[1]
  binding result: no binding (tested: 3 µg/mL)
[2]
  binding result: no binding (tested: 3 µg/mL)
[3]
  binding result: no binding (tested: 3 µg/mL)
[4]
  binding result: no binding (tested: 3 µg/mL)
[5]
  EC50: 0.276 µg/mL
Human CEACAM5 protein
  EC50: 0.0475 µg/mL
